Data: patent publication US6369237

Molecular target: T1, MutY adenine DNA glycosylase (UniProt P17802)
T1 sequence: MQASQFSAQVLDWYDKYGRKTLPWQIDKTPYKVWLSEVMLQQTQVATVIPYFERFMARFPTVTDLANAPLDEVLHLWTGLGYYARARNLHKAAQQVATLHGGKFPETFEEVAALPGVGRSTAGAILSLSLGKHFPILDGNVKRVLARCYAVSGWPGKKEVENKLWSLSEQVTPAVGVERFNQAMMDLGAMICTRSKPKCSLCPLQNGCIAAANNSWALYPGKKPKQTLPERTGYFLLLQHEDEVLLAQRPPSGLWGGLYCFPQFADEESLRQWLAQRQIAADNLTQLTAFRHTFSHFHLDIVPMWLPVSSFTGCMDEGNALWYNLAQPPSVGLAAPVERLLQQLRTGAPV
Assay: EMSA
Conditions: pyrrolidine residue lacking a base (inhibitor 1); at least 20 times higher than 2a

pyrrolidine (inhibitor 1) abasic duplex
Kd: 0.065 nM
